From publication PMC7693276

Target: central subunit ND3 of Y. lipolytica complex I (Y. lipolytica) (UniProt Q9B6C7)
Chain of UniProt Q9B6C7 (Q9B6C7 whole entry, one chain of several): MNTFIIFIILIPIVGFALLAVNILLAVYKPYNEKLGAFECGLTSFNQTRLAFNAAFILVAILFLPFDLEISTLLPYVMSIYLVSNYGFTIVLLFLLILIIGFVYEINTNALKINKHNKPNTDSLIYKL

With “accessory subunit LYRM6 (NDUFA6) mutant Y43A of Y. lipolytica complex I (natural protein)” the complex I activity (Q reductase activity), residual rate of the mutant was less than 25%.
“accessory subunit LYRM6 (NDUFA6) mutant L42A of Y. lipolytica complex I (natural protein)” gave a complex I activity (Q reductase activity), residual rate of the mutant of less than 25%.
Work on “accessory subunit LYRM6 (NDUFA6) mutant F89A of Y. lipolytica complex I (natural protein)” yielded a complex I activity (Q reductase activity), residual rate of the mutant of less than 25%.
